Data published in patent publication US11491212.

B1: FIXa-Y155F/K247N/N249S/R318Y/R338E/T343R/R403E/E410N (protein)
chain 1: not shown
chain 2: not shown
B2: FIXa-Y155F/R338E/T343R/R403E/E410N (protein)
chain 1: not shown
chain 2: not shown
B3: FIXa-Y155F/K247N/N249S/R338E/R403E (protein)
chain 1: not shown
chain 2: not shown
B4: FIXa Y155F/K247N/N249S/R338E/R403E (protein)
chain 1: not shown
chain 2: not shown
B5: FIXa-Y155F/K247N/N249S/R338E/T343R (protein)
chain 1: not shown
chain 2: not shown
B6: FIXa Y155F/K247N/N249S/R338E/T343R (protein)
chain 1: not shown
chain 2: not shown
B7: FIXa-N260S/R318Y/R338E/T343R/R403E/E410N (protein)
chain 1: not shown
chain 2: not shown
B8: FIXa-Y155F/K228N/I251S/R318Y/R338E/R403E/E410N (protein)
chain 1: not shown
chain 2: not shown
B9: FIXa-Y155F/K247N/N249S/R318Y/R338E/T343R/E410N (protein)
chain 1: not shown
chain 2: not shown
B10: FIXa K228N/R338E/R403E (mature FIX numbering) (protein)
chain 1: not shown
chain 2: not shown
B11: FIXa R318Y/R338E/E410N (mature FIX numbering) (protein)
chain 1: not shown
chain 2: not shown
B12: FIXa-K228N/I251S/R318Y/R338E/R403E/E410N (protein)
chain 1: not shown
chain 2: not shown
B13: FIXa-R318Y/T343R/R403E/E410N (protein)
chain 1: not shown
chain 2: not shown
B14: FIXa-Y155F/K247N/N249S/N260S/R318Y/R338E/R403E/E410N (protein)
chain 1: not shown
chain 2: not shown

Target: Factor X, P00742
Sequence (P00742 whole entry, looked up): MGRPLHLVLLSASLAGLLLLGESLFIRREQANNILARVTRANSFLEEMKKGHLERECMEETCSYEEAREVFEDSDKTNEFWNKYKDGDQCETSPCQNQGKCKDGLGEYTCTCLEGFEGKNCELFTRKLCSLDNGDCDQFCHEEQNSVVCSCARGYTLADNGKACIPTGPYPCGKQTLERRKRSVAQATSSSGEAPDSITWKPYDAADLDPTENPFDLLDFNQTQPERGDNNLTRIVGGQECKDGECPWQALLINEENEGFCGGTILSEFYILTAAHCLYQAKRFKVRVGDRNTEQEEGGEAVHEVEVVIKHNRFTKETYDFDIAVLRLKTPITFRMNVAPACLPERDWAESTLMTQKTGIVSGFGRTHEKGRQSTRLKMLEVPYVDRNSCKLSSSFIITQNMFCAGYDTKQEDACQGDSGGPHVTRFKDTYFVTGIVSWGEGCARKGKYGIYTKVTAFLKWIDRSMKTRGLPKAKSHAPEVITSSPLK

Protein | kcat/KM | KM | % of WT kcat/KM
B1 | 4e+08 M⁻¹ s⁻¹ | – | –
B2 | 2.4e+08 M⁻¹ s⁻¹ | – | –
B3 | – | 0.0409 µM | –
B4 | 1.4e+08 M⁻¹ s⁻¹ | – | 299%
B5 | – | 0.0153 µM | –
B6 | 7.3e+08 M⁻¹ s⁻¹ | – | 1579%
B7 | 2.9e+08 M⁻¹ s⁻¹ | – | –
B8 | 1.4e+08 M⁻¹ s⁻¹ | – | –
B9 | – | 0.0177 µM | –
B10 | – | – | 108%
B11 | – | – | 770%
B12 | 2.1e+08 M⁻¹ s⁻¹ | – | –
B13 | 5.8e+07 M⁻¹ s⁻¹ | – | –
B14 | 5.7e+07 M⁻¹ s⁻¹ | – | –
